Experimental data from the supplement of paper PMC5998384.

How the values were obtained:
HeLa Kyoto [1] = assay: solubility in G1/S (NP-40 vs SDS abundance) (log2 ratio); higher = more soluble; conditions: cell cycle stage: G1/S
HeLa Kyoto [2] = assay: melting temperature (median over replicates), in situ; higher = more thermally stable
HeLa Kyoto [3] = assay: solubility change mitosis vs G1/S (difference of NP-40 vs SDS log2 ratios) (log2 ratio difference); higher = more soluble in mitosis
HeLa Kyoto [4] = assay: thermal stability score vs G1/S (z-score of summed log2 fold changes over temperatures); higher = more thermally stable than in G1/S
[5] = cell cycle stage: early G1 (4.5 h after nocodazole release)
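For melting temperature (median over replicates), in situ in this document: HeLa Kyoto cells synchronized by double thymidine or nocodazole block, proteins quantified by TMT10plex mass spectrometry, three independent biological replicates.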
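For solubility change mitosis vs G1/S (difference of NP-40 vs SDS log2 ratios) in this document: synchronized HeLa Kyoto cells (double thymidine block for G1/S, nocodazole release for mitosis), protein amounts in NP-40 versus SDS lysates quantified by mass spectrometry, three biological replicates.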
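For solubility in G1/S (NP-40 vs SDS abundance) in this document: HeLa Kyoto cells arrested at G1/S by double thymidine block, proteins quantified by TMT10plex mass spectrometry in mild NP-40 versus SDS extracts, three biological replicates.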
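For thermal stability score vs G1/S (z-score of summed log2 fold changes over temperatures) in this document: synchronized HeLa Kyoto cells, proteins quantified by TMT10plex mass spectrometry, three biological replicates, mitosis taken 0.5 h after nocodazole release, G1/S directly after double thymidine block.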

Substance	solubility in G1/S (log2) (HeLa Kyoto [1])	melting temperature (HeLa Kyoto [2]; cell cycle stage: G1/S)	melting temperature (HeLa Kyoto [2]; cell cycle stage: mitosis)	solubility change mitosis (log2) (HeLa Kyoto [3])	thermal stability score (HeLa Kyoto [4]; [5])	thermal stability score (HeLa Kyoto [4]; cell cycle stage: mitosis)
MATYLEFIQQNEERDGVRFSWNVWPSSRLEATRMVVPLACLLTPLKERPDLPPVQYEPVLCSRPTCKAVLNPLCQVDYRAKLWACNFCFQRNQFPPAYGGISEVNQPAELMPQFSTIEYVIQRGAQSPLIFLYVVDTCLEEDDLQALKESLQMSLSLLPPDALVGLITFGRMVQVHELSCEGISKSYVFRGTKDLTAKQIQDMLGLTKPAMPMQQARPAQPQEHPFASSRFLQPVHKIDMNLTDLLGELQRDPWPVTQGKRPLRSTGVALSIAVGLLEGTFPNTGARIMLFTGGPPTQGPGMVVGDELKIPIRSWHDIEKDNARFMKKATKHYEMLANRTAANGHCIDIYACALDQTGLLEMKCCANLTGGYMVMGDSFNTSLFKQTFQRIFTKDFNGDFRMAFGATLDVKTSRELKIAGAIGPCVSLNVKGPCVSENELGVGGTSQWKICGLDPTSTLGIYFEVVNQHNTPIPQGGRGAIQFVTHYQHSSTQRRIRVTTIARNWADVQSQLRHIEAAFDQEAAAVLMARLGVFRAESEEGPDVLRWLDRQLIRLCQKFGQYNKEDPTSFRLSDSFSLYPQFMFHLRRSPFLQVFNNSPDESSYYRHHFARQDLTQSLIMIQPILYSYSFHGPPEPVLLDSSSILADRILLMDTFFQIVIYLGETIAQWRKAGYQDMPEYENFKHLLQAPLDDAQEILQARFPMPRYINTEHGGSQARFLLSKVNPSQTHNNLYAWGQETGAPILTDDVSLQVFMDHLKKLAVSSAC [SEC23B]	0.0443	50.4 °C	50.9 °C	-0.175	0.832	0.395
MTELRQRVAHEPVAPPEDKESESEAKVDGETASDSESRAESAPLPVSADDTPEVLNRALSNLSSRWKNWWVRGILTLAMIAFFFIIIYLGPMVLMIIVMCVQIKCFHEIITIGYNVYHSYDLPWFRTLSWYFLLCVNYFFYGETVTDYFFTLVQREEPLRILSKYHRFISFTLYLIGFCMFVLSLVKKHYRLQFYMFGWTHVTLLIVVTQSHLVIHNLFEGMIWFIVPISCVICNDIMAYMFGFFFGRTPLIKLSPKKTWEGFIGGFFATVVFGLLLSYVMSGYRCFVCPVEYNNDTNSFTVDCEPSDLFRLQEYNIPGVIQSVIGWKTVRMYPFQIHSIALSTFASLIGPFGGFFASGFKRAFKIKDFANTIPGHGGIMDRFDCQYLMATFVNVYIASFIRGPNPSKLIQQFLTLRPDQQLHIFNTLRSHLIDKGMLTSTTEDE [CDS2]	-0.102	57.3 °C	56 °C	-0.168	-3.65	-6.01
MSYIPGQPVTAVVQRVEIHKLRQGENLILGFSIGGGIDQDPSQNPFSEDKTDKGIYVTRVSEGGPAEIAGLQIGDKIMQVNGWDMTMVTHDQARKRLTKRSEEVVRLLVTRQSLQKAVQQSMLS [TAX1BP3]	0.277	49.1 °C	49.2 °C	0.0294	1.74	1.25
MRTAGRDPVPRRSPRWRRAVPLCETSAGRRVTQLRGDDLRRPATMKGKERSPVKAKRSRGGEDSTSRGERSKKLGGSGGSNGSSSGKTDSGGGSRRSLHLDKSSSRGGSREYDTGGGSSSSRLHSYSSPSTKNSSGGGESRSSSRGGGGESRSSGAASSAPGGGDGAEYKTLKISELGSQLSDEAVEDGLFHEFKRFGDVSVKISHLSGSGSGDERVAFVNFRRPEDARAAKHARGRLVLYDRPLKIEAVYVSRRRSRSPLDKDTYPPSASVVGASVGGHRHPPGGGGGQRSLSPGGAALGYRDYRLQQLALGRLPPPPPPPLPRDLERERDYPFYERVRPAYSLEPRVGAGAGAAPFREVDEISPEDDQRANRTLFLGNLDITVTESDLRRAFDRFGVITEVDIKRPSRGQTSTYGFLKFENLDMSHRAKLAMSGKIIIRNPIKIGYGKATPTTRLWVGGLGPWVPLAALAREFDRFGTIRTIDYRKGDSWAYIQYESLDAAHAAWTHMRGFPLGGPDRRLRVDFADTEHRYQQQYLQPLPLTHYELVTDAFGHRAPDPLRGARDRTPPLLYRDRDRDLYPDSDWVPPPPPVRERSTRTAATSVPAYEPLDSLDRRRDGWSLDRDRGDRDLPSSRDQPRKRRLPEESGGRHLDRSPESDRPRKRHCAPSPDRSPELSSSRDRYNSDNDRSSRLLLERPSPIRDRRGSLEKSQGDKRDRKNSASAERDRKHRTTAPTEGKSPLKKEDRSDGSAPSTSTASSKLKSPSQKQDGGTAPVASASPKLCLAWQGMLLLKNSNFPSNMHLLQGDLQVASSLLVEGSTGGKVAQLKITQRLRLDQPKLDEVTRRIKVAGPNGYAILLAVPGSSDSRSSSSSAASDTATSTQRPLRNLVSYLKQKQAAGVISLPVGGNKDKENTGVLHAFPPCEFSQQFLDSPAKALAKSEEDYLVMIIVRGFGFQIGVRYENKKRENLALTLL [RBM15]	-0.606	46.7 °C	48.7 °C	0.598	2.61	6.38
MEDVEARFAHLLQPIRDLTKNWEVDVAAQLGEYLEELDQICISFDEGKTTMNFIEAALLIQGSACVYSKKVEYLYSLVYQALDFISGKRRAKQLSSVQEDRANGVASSGVPQEAENEFLSLDDFPDSRTNVDLKNDQTPSEVLIIPLLPMALVAPDEMEKNNNPLYSRQGEVLASRKDFRMNTCVPHPRGAFMLEPEGMSPMEPAGVSPMPGTQKDTGRTEEQPMEVSVCRSPVPALGFSQEPGPSPEGPMPLGGGEDEDAEEAVELPEASAPKAALEPKESRSPQQSAALPRRYMLREREGAPEPASCVKETPDPWQSLDPFDSLESKPFKKGRPYSVPPCVEEALGQKRKRKGAAKLQDFHQWYLAAYADHADSRRLRRKGPSFADMEVLYWTHVKEQLETLRKLQRREVAEQWLRPAEEDHLEDSLEDLGAADDFLEPEEYMEPEGADPREAADLDAVPMSLSYEELVRRNVELFIATSQKFVQETELSQRIRDWEDTVQPLLQEQEQHVPFDIHTYGDQLVSRFPQLNEWCPFAELVAGQPAFEVCRSMLASLQLANDYTVEITQQPGLEMAVDTMSLRLLTHQRAHKRFQTYAAPSMAQP [NCAPH2]	0.197	48.5 °C	48.6 °C	0.0239	-0.208	-0.203
MAQLGAVVAVASSFFCASLFSAVHKIEEGHIGVYYRGGALLTSTSGPGFHLMLPFITSYKSVQTTLQTDEVKNVPCGTSGGVMIYFDRIEVVNFLVPNAVYDIVKNYTADYDKALIFNKIHHELNQFCSVHTLQEVYIELFDQIDENLKLALQQDLTSMAPGLVIQAVRVTKPNIPEAIRRNYELMESEKTKLLIAAQKQKVVEKEAETERKKALIEAEKVAQVAEITYGQKVMEKETEKKISEIEDAAFLAREKAKADAECYTAMKIAEANKLKLTPEYLQLMKYKAIASNSKIYFGKDIPNMFMDSAGSVSKQFEGLADKLSFGLEDEPLETATKEN [ERLIN2]	0.0653	52.7 °C	53.2 °C	-0.0221	2.26	1.92
MALLPRALSAGAGPSWRRAARAFRGFLLLLPEPAALTRALSRAMACRQEPQPQGPPPAAGAVASYDYLVIGGGSGGLASARRAAELGARAAVVESHKLGGTCVNVGCVPKKVMWNTAVHSEFMHDHADYGFPSCEGKFNWRVIKEKRDAYVSRLNAIYQNNLTKSHIEIIRGHAAFTSDPKPTIEVSGKKYTAPHILIATGGMPSTPHESQIPGASLGITSDGFFQLEELPGRSVIVGAGYIAVEMAGILSALGSKTSLMIRHDKVLRSFDSMISTNCTEELENAGVEVLKFSQVKEVKKTLSGLEVSMVTAVPGRLPVMTMIPDVDCLLWAIGRVPNTKDLSLNKLGIQTDDKGHIIVDEFQNTNVKGIYAVGDVCGKALLTPVAIAAGRKLAHRLFEYKEDSKLDYNNIPTVVFSHPPIGTVGLTEDEAIHKYGIENVKTYSTSFTPMYHAVTKRKTKCVMKMVCANKEEKVVGIHMQGLGCDEMLQGFAVAVKMGATKADFDNTVAIHPTSSEELVTLR [GSR]	0.127	58.8 °C	59.7 °C	-0.09	-1.7	-2.29
RREB1	-0.318	49.4 °C	50.8 °C	0.214	0.176	1.2
MEQEPQNGEPAEIKIIREAYKKAFLFVNKGLNTDELGQKEEAKNYYKQGIGHLLRGISISSKESEHTGPGWESARQMQQKMKETLQNVRTRLEILEKGLATSLQNDLQEVPKLYPEFPPKDMCEKLPEPQSFSSAPQHAEVNGNTSTPSAGAVAAPASLSLPSQSCPAEAPPAYTPQAAEGHYTVSYGTDSGEFSSVGEEFYRNHSQPPPLETLGLDADELILIPNGVQIFFVNPAGEVSAPSYPGYLRIVRFLDNSLDTVLNRPPGFLQVCDWLYPLVPDRSPVLKCTAGAYMFPDTMLQAAGCFVGVVLSSELPEDDRELFEDLLRQMSDLRLQANWNRAEEENEFQIPGRTRPSSDQLKEASGTDVKQLDQGNKDVRHKGKRGKRAKDTSSEEVNLSHIVPCEPVPEEKPKELPEWSEKVAHNILSGASWVSWGLVKGAEITGKAIQKGASKLRERIQPEEKPVEVSPAVTKGLYIAKQATGGAAKVSQFLVDGVCTVANCVGKELAPHVKKHGSKLVPESLKKDKDGKSPLDGAMVVAASSVQGFSTVWQGLECAAKCIVNNVSAETVQTVRYKYGYNAGEATHHAVDSAVNVGVTAYNINNIGIKAMVKKTATQTGHTLLEDYQIVDNSQRENQEGAANVNVRGEKDEQTKEVKEAKKKDK [SPG20]	0.205	49.8 °C	50.4 °C	-0.0384	1.64	1.92
MAILFAVVARGTTILAKHAWCGGNFLEVTEQILAKIPSENNKLTYSHGNYLFHYICQDRIVYLCITDDDFERSRAFNFLNEIKKRFQTTYGSRAQTALPYAMNSEFSSVLAAQLKHHSENKGLDKVMETQAQVDELKGIMVRNIDLVAQRGERLELLIDKTENLVDSSVTFKTTSRNLARAMCMKNLKLTIIIIIVSIVFIYIIVSPLCGGFTWPSCVKK [VAMP7]	-0.0498	54.4 °C	53.1 °C	-0.283	1.62	1.41
MPPKVTSELLRQLRQAMRNSEYVTEPIQAYIIPSGDAHQSEYIAPCDCRRAFVSGFDGSAGTAIITEEHAAMWTDGRYFLQAAKQMDSNWTLMKMGLKDTPTQEDWLVSVLPEGSRVGVDPLIIPTDYWKKMAKVLRSAGHHLIPVKENLVDKIWTDRPERPCKPLLTLGLDYTGISWKDKVADLRLKMAERNVMWFVVTALDEIAWLFNLRGSDVEHNPVFFSYAIIGLETIMLFIDGDRIDAPSVKEHLLLDLGLEAEYRIQVHPYKSILSELKALCADLSPREKVWVSDKASYAVSETIPKDHRCCMPYTPICIAKAVKNSAESEGMRRAHIKDAVALCELFNWLEKEVPKGGVTEISAADKAEEFRRQQADFVDLSFPTISSTGPNGAIIHYAPVPETNRTLSLDEVYLIDSGAQYKDGTTDVTRTMHFGTPTAYEKECFTYVLKGHIAVSAAVFPTGTKGHLLDSFARSALWDSGLDYLHGTGHGVGSFLNVHEGPCGISYKTFSDEPLEAGMIVTDEPGYYEDGAFGIRIENVVLVVPVKTKYNFNNRGSLTFEPLTLVPIQTKMIDVDSLTDKECDWLNNYHLTCRDVIGKELQKQGRQEALEWLIRETQPISKQH [XPNPEP1]	0.105	53 °C	51.9 °C	-0.14	-1	-3.97
GLUD1	0.197	57.5 °C	57.2 °C	-0.0663	2.33	-0.967
MNNQKQQKPTLSGQRFKTRKRDEKERFDPTQFQDCIIQGLTETGTDLEAVAKFLDASGAKLDYRRYAETLFDILVAGGMLAPGGTLADDMMRTDVCVFAAQEDLETMQAFAQVFNKLIRRYKYLEKGFEDEVKKLLLFLKGFSESERNKLAMLTGVLLANGTLNASILNSLYNENLVKEGVSAAFAVKLFKSWINEKDINAVAASLRKVSMDNRLMELFPANKQSVEHFTKYFTEAGLKELSEYVRNQQTIGARKELQKELQEQMSRGDPFKDIILYVKEEMKKNNIPEPVVIGIVWSSVMSTVEWNKKEELVAEQAIKHLKQYSPLLAAFTTQGQSELTLLLKIQEYCYDNIHFMKAFQKIVVLFYKAEVLSEEPILKWYKDAHVAKGKSVFLEQMKKFVEWLKNAEEESESEAEEGD [BZW1]	0.625	49.3 °C	48.8 °C	-0.105	2.93	6.17
